Measurements: US20080102065A1 (published 2008)

T1: mouse EpoR (muEpoR) (mouse, UniProt P14753 25-249, limits assumed)
T1 sequence (looked up): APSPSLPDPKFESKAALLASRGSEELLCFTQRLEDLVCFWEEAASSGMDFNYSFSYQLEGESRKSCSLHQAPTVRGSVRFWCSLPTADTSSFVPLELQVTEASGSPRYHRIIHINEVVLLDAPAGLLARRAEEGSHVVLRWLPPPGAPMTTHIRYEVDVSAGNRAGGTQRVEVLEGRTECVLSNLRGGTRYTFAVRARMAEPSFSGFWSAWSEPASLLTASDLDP

T2: huEpoR protein (soluble human erythropoietin receptor) (human, UniProt P19235 25-250, limits assumed)
T2 construct: also called soluble huEpoR; biotinylated huEpoR
T2 sequence (looked up): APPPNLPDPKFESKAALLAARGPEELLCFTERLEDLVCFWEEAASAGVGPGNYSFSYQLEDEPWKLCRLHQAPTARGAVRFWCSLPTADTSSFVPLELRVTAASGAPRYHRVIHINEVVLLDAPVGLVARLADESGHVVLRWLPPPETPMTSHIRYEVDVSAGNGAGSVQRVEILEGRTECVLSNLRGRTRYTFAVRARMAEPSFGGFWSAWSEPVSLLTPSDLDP

T3: cynomolgus monkey EpoR (cynoEpoR) (cynomolgus monkey, UniProt A0A2K5WKK4 25-250)
T3 construct: Soluble protein (coated in ELISA, analyte in SPR)
T3 sequence: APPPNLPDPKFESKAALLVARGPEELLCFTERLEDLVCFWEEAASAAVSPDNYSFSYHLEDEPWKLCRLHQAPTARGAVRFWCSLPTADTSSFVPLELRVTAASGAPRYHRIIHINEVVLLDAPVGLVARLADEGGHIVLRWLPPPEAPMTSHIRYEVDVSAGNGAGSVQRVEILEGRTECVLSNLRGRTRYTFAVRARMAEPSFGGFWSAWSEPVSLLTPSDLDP

T4: huEpoR expressed on the cell surface (UT-7 cells) (human, UniProt P19235 25-508)
T4 sequence (looked up): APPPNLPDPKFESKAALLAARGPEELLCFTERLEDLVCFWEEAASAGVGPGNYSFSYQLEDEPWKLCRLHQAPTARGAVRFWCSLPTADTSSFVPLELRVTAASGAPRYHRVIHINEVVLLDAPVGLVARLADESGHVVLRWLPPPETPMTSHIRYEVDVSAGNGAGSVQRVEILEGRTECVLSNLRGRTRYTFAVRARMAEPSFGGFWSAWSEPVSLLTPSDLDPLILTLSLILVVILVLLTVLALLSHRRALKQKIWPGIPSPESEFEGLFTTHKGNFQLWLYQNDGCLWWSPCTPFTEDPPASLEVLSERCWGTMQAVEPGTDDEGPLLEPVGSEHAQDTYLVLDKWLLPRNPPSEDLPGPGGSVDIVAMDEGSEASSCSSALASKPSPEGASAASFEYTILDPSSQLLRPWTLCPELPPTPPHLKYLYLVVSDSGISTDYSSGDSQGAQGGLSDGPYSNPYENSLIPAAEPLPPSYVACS

B1: Mxb 15 (clone 15 scFv-Fc protein) (Fc fusion)
VH: QVQLQESGPGLVRPSGTLSLTCAVSGGSIGSSNWWSWVRQAPGKGLEWIGEISQSGSTNYNPSLKGRVTISLDRSRNQLSLKLSSVTAADTAVYYCARQLRSIDAFDIWGPGTTVTVSA
VL: SYVLTQPPSVSVSPGLTATITCSGDKLGDKYASWYQQKPGQSPVLVIYQDRKRPSGIPERFSGSNSGNTATLTISGTQAVDEADYYCQAWDSDTSYVFGTGTQLTVL
notes: Tested as scFv-Fc (maxibody) with an Fc derived from human IgG1
B2: Mxb 13 (clone 13 scFv-Fc protein) (Fc fusion)
VH: QVQLQQSGGGVVQPGRSLRLSCAASGFTFSDYAMHWVRQAPGKGLEWVAVISNHGKSTYYADSVKGRFTISRDNSKHMLYLQMNSLRADDTALYYCARDIALAGDYWGQGTLVTVSA
VL: DIQMTQSPSSLSASVGDRVTITCRASQSISSYLNWYQQLPGKVPKLLIYGASKLQSGVPSRFSGSGSGTDFTLTISSLQPEDFATYYCLQDYNYPLTFGPGTRLEIK
notes: as for B1
B3: Mxb 16 (clone 16 scFv-Fc protein) (Fc fusion)
VH: QVQLQESGPGLVKPSETLSLTCTVSGGYINNYYWSWIRQPPGKGLEWIGYIHYSGSTYYNPSLKSRVTISEDTSKNQFSLKLSSATAADTAVYYCARVGYYYDSSGYNLAWYFDLWGRGTLVTVSA
VL: SSELTQDPAVSVALGQTVRITCQGDNLRSYSATWYQQKPGQAPVLVLFGENNRPSGIPDRFSGSKSGDTAVLTITGTQTQDEADYYCTSRVNSGNHLGVFGPGTQLTVL
notes: as for B1
B4: Mxb 319 (clone 319 scFv-Fc protein) (Fc fusion)
VH: QVQLVQSGAEIKKPGASVKVSCKTFGSPFSTNDIHWVRQAPGQGLEWMGIIDTSGAMTRYAQKFQGRVTVTRETSTSTVYMELSSLKSEDTAVYYCAREGCTNGVCYDNGFDIWGQGTLVTVSS
VL: DIQMTQSPSTLSASIGDRVTITCRASEGIYHWLAWYQQKPGKAPKLLIYKASSLASGAPSRFSGSGSGTDFTLTISSLQPDDFATYYCQQYSNYPLTFGGGTKLEIK
notes: as for B1
B5: Mxb 276 (clone 276 scFv-Fc protein) (Fc fusion)
VH: EVQLVQSGGGLVQPGGSLRLSCAASGFTFSSYWMSWVRQAPGKGLEWVANIKPDGSEKYYVDSVKGRFTISRDNAKNSVYLQMNSLRAEDTAVYYCARVSRGGSYSDWGRGTMVTVSS
VL: QSVLTQPPSASGSPGQSVTISCTGTSSDVGGFNYVSWYQKYPGKAPKLVIYEVSKRPSGVPDRFSGSKSGNTASLTVSGLQAEDEADYYCSSWAPGKNLFGGGTKLTVL
B6: Mxb 352 (clone 352 scFv-Fc protein) (Fc fusion)
VH: EVQLVQSGGGLVQPGGSLRLSCAASGFRFSSYWMTWVRQAPGKGLEWVANIKPDGSEKYYVDSVKGRFTMSRDNAKNSVYLQMNSLRAEDTAVYYCARVSRGGSFSDWGQGTLVTVSS
VL: QSALTQPASVSGSPGQSITIPCTGTSSDIGTYDYVSWYQQHPGKVPKVIIYEVTNRPSGVSNRFSGSKSGNTASLTISGLQADDEADYYCNSFTKNNTWVFGGGTKLTVL
B7: Mxb 323 (clone 323 scFv-Fc protein) (Fc fusion)
VH: QVQLVESGGGLVQPGGSLRLSCAVSGFTFSKYWMTWVRQAPGKGLEWVANIKPDGSEKYYVESVKGRFTISRDNAKNSVYLQMNSVRAEDTAVYYCARVSRGGSFSDWGRGTMVTVSS
VL: QSALTQPASVSGSPGQSITISCTGTSSDVGSYNLVSWYQQHPGKVPKLIIYEVSNRPSGVSHRFSGSKSGNTASLTISGLQAEDEADYYCSSLTSSGTWVFGGGTKVTVL
B8: Mxb 307 (clone 307 scFv-Fc protein) (Fc fusion)
VH: EVQLVESGGGLVQPGGSLRLSCAVSGFTFSKYWMTWVRQAPGKGLEWVANIKPDGSEKYYVESVKGRFTISRDNAKNSVYLQMNSVRAEDTAVYYCARVSRGGSFSDWGQGTMVTVSS
VL: QSVLTQPPSASGSPGQSVTISCTGTSSDVGGYNYVSWYQQHPDKAPRLMIYDVNKRPSGVPDRFSGSKSGNTASLTVSGLQAEDEAHYYCNSYAGSNNWVFGGGTQLTVL
notes: as for B1
B9: Mxb 330 (clone 330 scFv-Fc protein) (Fc fusion)
VH: EVQLVESGGGLVQPGGSLRLSCAVSGFTFSKYWMTWVRQAPGKGLEWVANIKPDGSEKYYVESVKGRFTISRDNAKNSVYLQMNSVRAEDTAVYYCARVSRGGSFSDWGQGTLVTVSS
VL: QSALTQPPSASGSPGQSVTISCTGTSSDVGAYNYVSWYQQHPGKAPKLMIYEVARRPSGVPDRFSGSKSGNTASLTVSGLQAEDEADYYCSSYAGSNNFAVFGRGTKLTVL
notes: as for B1
B10: Mxb 295 (clone 295 scFv-Fc protein) (Fc fusion)
VH: EVQLVESGGGLVQPGGSLRLSCAASGFTFSSYAMSWVRQAPGKGLEWVSGISGSGSSEGGTYYADSVKGRFTLSRDNSKNTLYLQMNSLRAEDTALYYCVKDRPSRYSFGYYFDYWGRGTLVTVSS
VL: LPVLTQPPSVSVSPGQTASIACSGNKLGDKYVSWYQQKPGQSPLLVIYQDTKRPSGIPERFSGSNSGNTATLTISGTQAMDEADYYCQAWDSSTDVVFGGGTKLTVL
notes: as for B1
B11: Mxb 201 (clone 201 scFv-Fc protein) (Fc fusion)
VH: QVQLQESGSGLARPSQTLSLTCAVSGGSISSSAFSWNWIRQPPGKGLEWIGYIYHTGITDYNPSLKSRVTISVDRSKNQFSLNVNSVTAADTAVYYCARGHGSDPAWFDPWGKGTLVTVSS
VL: QSVLTQPPSVSVSPGQTASITCSGDKLGDKYASWYQQRPGQSPVLVIYRDTKRPSGIPERFSGSNSGNTATLTISGTQAVDEADYYCQAWDSTTSLVFGGGTKLTVL
notes: as for B1
B12: Mxb 378 (clone 378 scFv-Fc protein) (Fc fusion)
VH: QVQLVESGGGLVQPGRSLILSCAVSGFTFSKYWMTWVRQAPGKGLEWVANIKPDGSEKYYVESVKGRFTISRDNAKNSVYLQMNSVRAEDTAVYYCARVSRGGSFSDWSQGTLVTVSS
VL: QSALTQPPSASGSPGQSVTISCTGTSGDVGAYNYVSWYQQYPGKAPKLMIYEVSKRPSGVPDRFSGSKSGNTASLTVSGLQAEDEADYYCNSYRGSNGPWVFGGGTKVTVL

How the values were obtained:
mouse EpoR (muEpoR) = target: T1, mouse EpoR (muEpoR); experiment: ELISA on coated muEpoR, scFv-Fc at 5 µg/ml (Example 17)
Protocol: The cross reactivity of certain clones in scFv-Fc format was tested using an ELISA Assay. […] 100 μl of 1 μg/ml (in 50 mM NaHCO3, pH8.5) cynoEpoR or muEpoR was added to each well on a polysorp ELISA plate and incubated at 4° C. overnight. After blocking the wells with 4% milk/PBS/0.1% Tween20 for 1 hour at room temperature, plates were washed three times with PBS/0.1% Tween20. 100 μl of 5 μg/ml scFv-Fc was added to each well and incubated for 1 hour at 25° C. […] ABTS (2,2′-azino-bis(3-ethylbenzthiazoline-6-sulfonic acid)) was used as a substrate and the absorption was measured at 405 nm on a plate reader.

[1] = target: T2, huEpoR protein (soluble human …); experiment: SPR, Biacore T100; scFv-Fc captured on anti-human IgG Fc CM5 chip, EpoR as analyte; 1:1 fit;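 note: measured at 25 °C in HBS-EP buffer with 0.1 mg/ml BSA, flowed at 50 µl/min, 1 min association then dissociation (10 min human, 5 min cyno EpoR)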
Protocol: (§1) Surface plasmon resonance experiments were conducted at 25° C. using a Biacore T100 instrument (Biacore AB, Uppsala, Sweden) equipped with a CM5 sensor chip. Each flow cell on the CM5 chips was activated with a 1:1 (v/v) mixture of 0.1 M N-hydroxysuccinimide (NHS) and 0.4 M1-ethyl-3-(3-dimethylaminopropyl) carbodiimide hydrochloride (EDC). Fcγ Fragment Specific AffiniPure Goat Anti-Human IgG antibody at 30 μg/ml in 10 mM sodium acetate, pH 5.0 was immobilized to two flow cells on the CM5 chips using standard amine coupling chemistry with a target level of 10,000 Resonance Units (RU). Residual reactive surfaces were deactivated with an injection of 1 M ethanolamine. The running buffer was then switched to HBS-EP+0.1 mg/ml BSA for all remaining steps.
(§2) For each scFv-Fc protein to be tested, the scFv-Fc protein was diluted in running buffer to 200 ng/ml and injected over the test flow cell at 10 μl/min for 2 minutes to capture the maxibody. […] A flow rate of 50 μl/min was used and a 1 minute association phase followed by a 5 minute (for cyno EpoR) or 10 minute (for hu EpoR) dissociation phase. After each cycle the surfaces were regenerated with a 30 second injection of 10 mM glycine pH 1.5. Fresh scFv-Fc protein was then captured on the test flow cell to prepare for the next cycle.

[2] = target: T3, cynomolgus monkey EpoR (cynoEpoR); experiment: as above
Protocol: as §1, §2

[3] = target: T4, huEpoR expressed on the cell surface …; experiment: cell-based or functional assay

Binder	binding result (mouse EpoR (muEpoR))	Kd [1]	koff [1]	kon [1]	Kd [2]	koff [2]	kon [2]	Average EC50 (nM), UT-7-luciferase (STAT5 reporter) assay [3]	Ratio (EC50 of Epo / EC50 of the scFv-Fc), UT-7-luciferase assay [3]
B1	no binding (tested: 5 µg/ml)	1950 nM	0.119 s⁻¹	61000 M⁻¹ s⁻¹	3130 nM	0.115 s⁻¹	37000 M⁻¹ s⁻¹	2.8 nM	0.003
B2	no binding (tested: 5 µg/ml)	1040 nM	0.0568 s⁻¹	55000 M⁻¹ s⁻¹	920 nM	0.0597 s⁻¹	65000 M⁻¹ s⁻¹	4.03 nM	0.002
B3	no binding (tested: 5 µg/ml)	2190 nM	0.142 s⁻¹	65000 M⁻¹ s⁻¹	4360 nM	0.283 s⁻¹	65000 M⁻¹ s⁻¹	–	–
B4	no binding (tested: 5 µg/ml)	212 nM	0.0335 s⁻¹	158000 M⁻¹ s⁻¹	121 nM	0.0258 s⁻¹	213000 M⁻¹ s⁻¹	5.87 nM	0.002
B5	–	–	–	–	–	–	–	0.322 nM	0.03
B6	–	–	–	–	–	–	–	2.16 nM	0.004
B7	–	–	–	–	–	–	–	0.613 nM	0.016
B8	no binding (tested: 5 µg/ml)	108 nM	0.246 s⁻¹	2.28e+06 M⁻¹ s⁻¹	1210 nM	0.361 s⁻¹	299000 M⁻¹ s⁻¹	0.381 nM	0.025
B9	no binding (tested: 5 µg/ml)	45.4 nM	0.0373 s⁻¹	822000 M⁻¹ s⁻¹	890 nM	0.0965 s⁻¹	108000 M⁻¹ s⁻¹	0.0075 nM	1.28
B10	no binding (tested: 5 µg/ml)	163 nM	0.00296 s⁻¹	18000 M⁻¹ s⁻¹	539 nM	0.0221 s⁻¹	41000 M⁻¹ s⁻¹	0.607 nM	0.016
B11	–	4030 nM	0.0187 s⁻¹	4600 M⁻¹ s⁻¹	–	–	–	8.28 nM	0.001
B12	–	–	–	–	–	–	–	0.055 nM	0.175
